Assay results: the DeepSol protein solubility set

Assay: soluble on expression in E. coli; label from the status in PepcDB or PDB records

Sequence	soluble on expression in E. coli
MRFLTAGESHGPELLAIIEGLPAGLPLSEEDINPWLEKRQKGYGRGRRMVIERDRVEFRAGVRGGRTTGAPVALAIKNADFKNWAEIMDPAPGNWPRKRALTAARPGHADLAGGMKYGHKDLRDVLERASARETAMRVAVGAVALKLLSLLGVEGVGYVPGMAGVWAKVPFSWDLVPRIEESPLRMTDPEAEAEAIRRIDQAKAEGDTLGGIIEARFRGLVPGLGSHVHWDRKLDGRLAQMALSIPAVKGVEIGPAFENAMKRGSEVHDAIYWSPERGFYRKTNRAGGLEGGMTTGEELVVRAALKPIATLMKPLPTVDVVTHEPKDAARERSDTTAVPAASVILCALSAIVLAQAYLEKFGGDTMEEIQERVERYRERVRAY	soluble
MGSDKIHHHHHHMPLLEIKNLTKIFTIGSIFSRTRIVAVDNVNFDINEAEIFTLAGESGCGKTTTAKIILGFEEPTSGEIIYKGRKIDRVHQNEKERRELLKEIQAVFQNPFSTFNPLRKVDRYFYETLFNLGIADTKKKAEEIIKEKLSAVGISFEEFSEKYPSEFSGGQLQRISIARALLTNPSLLVADEPVSMVDASLRMSIVNLFKDLKEQYGVSVLYITHDLTTAYYVSDRIAVMFRGNIVELGPAEKVLMEPKHPYTQLLRESVPEPDPKKKWDIRIKLSETEQAEYLRQGCKFAGRCPKAMDICRKEPPPYFEVDGVQVKCWLYR	not soluble
MSLQGIHTISFVGLGLIGASLMQALKRAAGATGRNIEMIGFDPAFDAADIVAITGECGLDRFEPDPAKLYNADLVVLCAPVVTNIALLDEAKRHIRKDTLVSDVSSTKAEIAAKAQELGIEFIGMHPIAGREQQGYQAASPELLDGRLVILCTECATLETTLATELAGLLRAAGCKPLFMSPEEHDRVYANISHLPQLISTALMAHCRENVEWAGPGFASMARLAGSPWAVWRDIVETNRSNIADEMEAFSALLADVAGEVRGGNFEALESKFREANDLYQRLQERSSEGHHHHHH	soluble
MAHHHHHHMYGGNNLRKFIPLVDIPLLGNKNNLLIFCGKVNFGSKKQKEKVDKETKKFRKFLKISNMKNNDEDEKYEGDINEGDMKKKMKGISGMTRIDYKIYDIKIQEINKNFENKIKKIFDTCLQIDFFNNISILKDKKNIKLCDVAQVVIKSSNLIYFYPYTINDIQKIIHNLKLKDNTWNPTVSNDGQYVILQIQPLSEDVKMKKKKEAKDLFEKIKNDIRNVRYKIRDDIIKNIEGDQWKIVERNKLDNYIKDKMKLIENVYEQSVKNY	not soluble
MGSDKIHHHHHHMLWRLKGVPFVGFDVARVRGLYTSLGDGWTYLNSHQIPQVPERVASGVAAAFRTHAQISEVTSQPIAVDQLEAAREAVASLAGVDPDCVVLGPTRQFLAHTLARGLGGFVRRKAGVVLSRADADWLTAPFRSLDGVFSWAEPDLGTGMLPDWQYEKLVDGSTRLVVLSAAHPLLGTVAPVGKIVDKVRARSRAWVLVDATTYAAYRPLRLDEWEADIVMLDLGELGGPQISALIFRDTSMFPRLDRTVPLELPASSLPHGLLGGVPNLVRHLGNLDENAPSVVEAMGEMAKFHKGLFEHLVESLEGLHAVHIVGISGDAAGQDAAFLDRVPRLTFTMEGVPADMVYRRLVDNRLITTVSPADPLLEAMGVTEAGGSITIGLSPFSTYYEVDQLTRVLASLA	not soluble
MNILNIKEGQHYIAKIESHSFVDGEGVRCSVYVSGCPFQCKGCYNVKAQNFKYGEPFELEMLEEILDYCAPSYIEGLSILGGEPFCNLFITLQLVEAFRQRFGHTKTIWVWTGFLFEYLKQQDDARKSLLEHIDVLVDGMFIQHLYRPNLPYKGSLNQRVIDVQSSLQKEQVIEYLTKLEHHHHHH	not soluble
MAHTGENVLKGLPLKAIALAIALSNPVSAQTLEQAVSITLASNPELKSAFNQFKSREYDAEASSGAYLPKIDLDAGIGYEAINPAESSGNRNTDLTRKDATLTLTQLIWDGSATLNDMDRTAAEAEADRYQLLADASNMALEVAKIYLDATKASEILTLSENNLAIHKDIYRDIKKRADSGIGSTADVTQVEARLAKAHSNLVAAQNNLFDIYTQFRRLVGQEPVSLEFPRADQNAIPPTLENALNMAQENHPVIKVAQADVDAARFQYKQSKAPNYPTLSFEAAQSWRNDAGGIEGSSDELSAMLRLRYNLYNGGSDSDRTESAAYQLNRSKDLREKTFRTVEEGLRLSWSALDLTLQQKQFLADHVDSASKTVVSYRKQYQIGQRTLLDLLNTENELFEARKDYLDARYAEQYAKYRVMNASGNLLDALRVDIPQEWTAKVEY	not soluble
MSLNSEAFTGNAAQRFLFSSSDGTKIVSIADRGHLRWCHSTSTTYKSLDFDLQFEGKVEGAVSSTTADYVCIYNRDELHVLEVPWMYSGEENGLKHLCHIYSHKFDENHSIKQVLFHPKSYLDSTILVLTNDDSIFMINTDDNRSDKNMINLNSKNSALGLYDRINDIQKIIFSQDGLSLLILSAEEGCDIFTIYPCLPRRWDISLHEVDTLFAKSLLLYNNMNVNTTPQEKRNIVKQLNFMEKIRGQKTAFRNDKKPLILEDAYLNAQPQGPFSMTPYPNELYDFMATDINIIQITQNISLLAIAFSNGTVLLFLSDLEPIMSWDISRFPGSNSLALLEQIKLEITDNAKFLSIPGTYGKFVVTDNVKSNFFVNTCDWSTILAQIIDDSDIKLLANLKVKSNIENLQQLATTFKSIIYWKNENISCNYIISDKKIEELDEGHHHHHH	soluble
MAHHHHHHMTDEKKEEWIRRPYTRSIPVKLRSLAQLEESTVDATTQWYELLEQLVTETDVKGILQQTTKRKAARKLEELASQLRAVMQEMTAQSGRVVREGVDTQSFEQFCAWAGSTPSLQTTEASNGCTQMDKLCARVCMLCLCVAVILNDLELLICGMSFAESHKLLETYSRECEQRSVRQSNSIPDSGMEKGKNSEDVVLCSTVAHTLICGNDHNTFVPLADGDVLLACTLLYYLYTQDGPSASKSVMILERVLHCAEEVGYTSDVLDETGGYRIDFFYTISRMANWVETDNCPRLYQRIAHGFHGGSEVLVPFPPFVFLFTQVMLHMVVRRRLVEMQLQNVWRPVVTMDAAPVGCDGTAAETCSHVHPTVSSTSLCSAHGSKFFAVCLMLQRDCLSQYRSWPLPMELQKSFFC	not soluble
SESQSEEIDCNDKDLFKAVDAALKKYNSQNQSNNQFVLYRITEATKTVGSDTFYSFKYEIKEGDCPVQSGKTWQDCEYKDAAKAATGECTATVGKRSSTKFSVATQTCQITPAEGPVVTAQYDCLGCVHPISTQSPDLEPILRHG	soluble
MQKVRLIVSGRVQGVGFRYATHTLALDIGDIYGRVWNNNDGTVEILAQSKDSDKIATFIQEVRKGPSKWAKVTYVDVTMANFEDFQDFQIGK	not soluble
MSLSPPILVGFSGPLTGVNSDLGVQGRNGAQLAIEHINAGGGINGRQLELLSMDDGPTAESARDADSALLRQGVVAIIGHMTSNQAIAGLPVVEQHGAVMIAPTVSTPLLTGKRDGFFRLMPDNDSWAYATADYALAQGLKTVSVIYETANQAFAGSFVDGFVTQFEAGGGRLLQRIPFTSAQRDTLEAAAIRAVSTNPDTIVLAASARDTAALAQFIDAHDSPRPVLLSSSWAYTREIFLAGGRAVEGIVFTISYLPDDTREGYLAFRKAYTERFGWEPNFAAALAYESAKVLAAALRRTGGRAQGLREALAAGTPVQGISETVTLDQYGDVQRPPYIVTIRNGEFVSIQEGHHHHHH	soluble
MGSDKIHHHHHHMHHRSSPLSRCLNRPSLSENRLVERACLSVGRRPSSSRSRRQHAGRLALLLGTLAPAVVLAQAAPDTVAMPQGINLGGTSFMDGFGSTTPGWTVLEYLRYYDLDAIKNARGDNSPAFRDPQVGVSALLTQLIYVTPYSLGRGSLSFNTIIPLVNYDTSFAADSPVRLRSNGFGMGDISFGPALQMPPVMRDGRVFFFQRFALDLFAPVGKFDRDIAINQGTGFWSIAPQWAFTVQPTDNWEISARINYLYNFRTDRAGGVPPIPGFRFRNGQAGDAVWVNFASSVKVSEQLRVGVNGYFLQQLKDNRTNGERVADSKRMQLYLGPGLSWRVDAKNLFNLNLYIPLDVENSVAGNSVNLMYVHSL	not soluble
RELIRHGAEVHAVMSEAATKIIHPYAMEFATGNPVITEITGFIEHVELAGEHENKADLILVCPATANTISKIACGIDDTPVTTVVTTAFPHIPIMIAPAMHETMYRHPIVRENIERLKKLGVEFIGPRIEEGKAKVASIDEIVYRVIKKLHKKTLEGKRVL	not soluble
MGSDKIHHHHHHMAVRPYWKGYLKLSLVTCPVQMMPATSESEKVRFHTLNRETQNRVVSHYVDSVTGKEVKDEDEVKGYQRGENEYIILEDEELENVALDSTKTIDISTFTPRDSVEWIWLDTPYYLSPNDPVGQEAFSVIRDAMEAQNMVGISRLVISRRERAVMLEPRGKGIVLWTLRYGDEVRDEDTYFAGIDDEETADREMMPLVQQLIKKQTKHWDAKMVIDPVQERLLDIIAAKKKALKKSARAKPSAPAKSTPSNVINIMDALKKSVAAENRSSK	not soluble
MGHHHHHHSHMDIQKSENEDDSEWEDVDDEKGDSNDDYDSAGLLSDEDCMSVPGKTHRAIADHLFWSEETKSRFTEYSMTSSVMRRNEQLTLHDERFEKFYEQYDDDEIGALDNAELEGSIQVDSNRLQEVLNDYYKEKAENCVKLNTLEPLEDQDLPMNELDESEEEEMITVVLEEAKEKWDCESICSTYSNLYNHPQLIKYQPKPKQIRISSKTGIPLNVLPKKGLTAKQTERIQMINGSDLPKVSTQPRSKNESKEDKRARKQAIKEERKERRVEKKANKLAFKLEKRRQEKELLNLKKNVEGLKL	not soluble
MGSDKIHHHHHHMDTFHLMKVYIAVAEEQGFSAASRRLNMSAPTVTRAVAHLEETLKVKLLNRTTRYVRMTEAGARYLEDAKRILHDVKVANEAALGINATPQGKISVTAPVLFGQQFVLPTITDYLVRYPQTQVNAVFLDRVVNLLEEGHDVGIRIGELHDSSMRAKKVGNVRLILVASPEYLAKNGIPKNCQELAQHTLIAANTGSLNPDWQFLVNKKNQTIKINPRLTVTTNQAAINAAKNGLGITRIISYQVAEELKNNKLKILLENFEYPAKPINIVHREDKFSSAKVRSFIDLLAENLQTNSALN	not soluble
MRERKKYGKHIPKSLSSKINKRKLIQKNICTNYKTIKIIDIYENLPYNQLNNGRTKIKEIILANDVLVVLLISGISRAYNMINGEFLCEINPNNFSVVHTIVYNSYNNTLIIAYASFPAHLQCKVIDCNDLKHGITNSSKLGILFGT	not soluble
MLPMQLPFQRARRLCLRAALAAIASAAHADDGTIVITGTITDTTCVIEDPAGPTHTKVVQLPKISKSALAKDGDEAGRTPFLITLKNCPSSLNNGVKAYFEPGPTTDYATGDLKAYSIAYNNNPATTQNAIIAASEAQGVQIRISNQNGTKIPMGVDAAAQNAQAFNPVTDTADNAKKKVTLRYLASYVKKSGNITTGQLTTYVGFSMIYP	not soluble
QCYHGNGQSYRGTFSTTVTGRTCQSWSSMTPHRHQRTPENYPNDGLTMNYCRNPDADTGPWCFTMDPSIRREYCNLTRC	soluble
PELPTCLTRRLADYATEKPLVRLFFQGEEATVPFISQTSRELNMDINILLANIDRFDGVTCGVLVVELTANPLLLEAFINRCEQAGITVEVLGYVLPDGL	not soluble
MGSDKIHHHHHHMNRRRIALLLPRLGRYGGVEQFAWHLAEALAQRGHEVDFICARKEGEAPAGVRPVVVGRKGGLKVLKALHYLVQAERMRRRGDYDLTVSFGKTWEQDILRVGGGPLSTFWQLSGEAWPKGPRRTLKCLTRHLSPYNWLTHIIERRQYDGHCKIICVSDAVRGWTLQAFPSLAATPPEVIYNRPQLERFTPAPDTGRAACRERFSIPAGHVAIGTASSNFILKGVGHLIHALSLLPPHFMLLVAGGRNPGPFMDVARKLGVSDRVRFLGRVDDMPAFYNAIDVFALNTFYDACSNAVLEALACGTPALSTTRNGSSRFLPEAWVTDAPDDPADLAARLAALASEERTEGFAWPEDVKAGIPAWVERIEREMESGIRRG	not soluble
